Measurements published in patent US7364741B1, “Peptides of human Papilloma virus for use in human T cell response inducing compositions” (priority 1992, dated 2008).
pIC50: −log10 of the molar value. Like-named read-outs stand apart in the source and are kept apart here.

Assays:
HLA-A2.1 = target: T1, HLA-A2.1 (Homo sapiens, UniProt P04439, D140Y/D185E/D98H/E176V/E277Q/G131W/G231S/I119V/I121R/I166T/I218V/L300P/L318F/N151K/N90K/P208A/P217A/Q86G/Q94H/R138H/R169H/T345S); format: cell-based
T1 construct: endogenous in cells; host or cells: 174CEM.T2
Description: Of all peptides a dilution of 1 mg/ml in 0.9% NaCl was made.
174CEM.T2 cells were cultured in Iscovel's modified Dulbecco's medium (Biochrom KG Seromed Berlin, Germany: F0465) supplemented with 100 IU/ml penicillin (Biocades Pharma, Leiderdorp, The Netherlands), 100 μg/ml kanamycin (Sigma St. Louis, USA:K-0254), 2 mM glutamine (ICN Biomedicals Inc. Costa Mesa, Calif., USA:15-801-55) and 10% fetal calf serum (FCS, Hyclone Laboratories Inc. Logan, Utah, USA:A-1115-L). Cells were cultured at a density of 2.5×10^5/ml during 3 days at 37° C., 5% CO2 in humified air.
174CEM.T2 cells were washed twice in culture medium without FCS and put in serum-free culture medium to a density of 2×10^6 cells/ml. Of this suspension 40 μl was put into a V bottomed 96 well plate (Greiner GmbH, Frickenhausen, Germany: 651101) together with 10 μl of the individual peptide dilutions (of 1 mg/ml). The end concentration is 200 μg/ml peptide with 8×10^4 174CEM.T2 cells. This solution was gently agitated for 3 minutes after which an incubation time of 16 hours at 37° C., 5% CO2 in humified air took place. Then cells were washed once with 100 μl 0.9% NaCl, 0.5% bovine serum albumin (Sigma St. Louis, USA: A-7409), 0.02% NaN3 (Merck Darmstadt, Germany:822335). After a centrifuge round of 1200 rpm the pellet was resuspended in 50 μl of saturating amounts of HLA-A2.1 specific mouse monoclonal antibody BB7.2 for 30 minutes at 4° C. Then cells were washed twice and incubated for 30 minutes with F(ab)2 fragments of goat anti-mouse IgG that had been conjugated with […] (Tago Inc Burlingame, Calif., USA: 4350) in a dilution of 1:40 and a total volume of 25 μl.
After the last incubation, cells were washed twice and fluorescence was measured at 488 nanometer on a FACScan flow-cytometer (Becton Dickinson, Franklin Lakes, N.J., USA).
The 174CEM.T2 cell line expresses “empty” and unstable HLA-A2.1 molecules that can be stabilized when a peptide is binding to the peptide presenting groove of these molecules. […] This leads to an increase in cell surface expression of the HLA-A2.1 molecule.
With background fluorescence level (without adding peptides) set on a Fluorescence Index level of 0, binding of a peptide was regarded positive when the level of fluorescence was ≧0.5.

HLA-A11.2 = assay: Immunochemical peptide-MHC binding assay, purified HLA-A11.2, radiolabeled probe […]; set-up: species or system human; details: for binding ratio to standard: IC50 of standard divided by IC50 of tested peptide, cysteines synthesized as alanine
Text: (§1) The method utilizes purified class I molecules and radiolabeled synthetic probes based on consensus peptides. Competitor peptides tested for their binding to the class I molecules compete for this binding with the radiolabeled consensus peptides. The HLA-A1, A2.1, A3.2, A11.2, and A24 molecules were isolated from the following cell lines, respectively: the EBV (Eppstein Barr Virus) transformed cell line Steinlin, the EBV transformed cell line JY, the EBV transformed cell line GM3107, the cell line BVR and the EBV transformed cell line KT3. After large scale culture, cells were lysed in NP40 (Fluka Biochemika, Buchs, Switzerland) and the lysate was passed over two pre-columns of inactivated sepharose CL 4B and Prot A Sepharose. Class I molecules were then purified from the cell lysate by affinity chromatography using Prot A Sepharose beads conjugated with B2.23.2 (anti-HLA-B and HLA-C) and anti-human HLA. The lysate was first depleted of B and C molecules by repeated passage over the B2.23.2 column.
(§2) After two days at 23° C. the percent of MHC-bound radioactivity was measured by size exclusion chromatography on a TSK2000 gel filtration as described by Sette et al. (1992).
(§3) Probe peptides were iodinated by using the Chloramine T method described by Buus et al. (1987). The sequences of the probe peptides used for the aforementioned HLA molecules were […] (SEQ ID NO:76) for A1, […] (SEQ ID NO:77) for A2.1, […] (SEQ ID NO:78) for A3.2, […] (SEQ ID NO:79) for A11.2, and […] (SEQ ID NO:80) for A24.
(§4) Each competitor peptide was tested in two to four completely independent experiments. Since cysteine containing peptides are susceptible to (air) oxidation during synthesis and handling, these peptides were synthesized with an alanine instead of a cysteine.

HLA-A3.2 = target: T2, HLA-A3.2 (Homo sapiens, UniProt P04439); format: binding
T2 construct: endogenous in cells; host or cells: EBV transformed cell line GM3107 (protein purified from NP40 lysate)
T2 sequence (P04439 25-365): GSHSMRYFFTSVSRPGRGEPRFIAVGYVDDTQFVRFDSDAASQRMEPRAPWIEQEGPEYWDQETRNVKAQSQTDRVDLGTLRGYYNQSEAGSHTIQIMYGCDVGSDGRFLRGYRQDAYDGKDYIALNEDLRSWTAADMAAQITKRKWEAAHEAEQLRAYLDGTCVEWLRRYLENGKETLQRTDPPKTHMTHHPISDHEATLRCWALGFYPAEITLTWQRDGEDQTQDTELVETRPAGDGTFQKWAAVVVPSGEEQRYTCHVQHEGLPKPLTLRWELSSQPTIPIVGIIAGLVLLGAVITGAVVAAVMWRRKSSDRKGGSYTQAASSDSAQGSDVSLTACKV
T2 sequence (P61769 21-119, further chain): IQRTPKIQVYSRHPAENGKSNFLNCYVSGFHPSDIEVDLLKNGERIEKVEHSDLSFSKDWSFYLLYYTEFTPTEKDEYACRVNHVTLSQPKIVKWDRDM
Text: as §1, §2, §3, §4

[1] = HPV16 peptides, 200 μg/ml peptide, 16 hours, 174CEM.T2 cells
[2] = HPV16 peptides, 200 μg/ml peptide, 16 hours, 174CEM.T2 cells, background set on 0, binding positive when ≧0.5
[3] = HLA-A3.2, IC50 of standard divided by IC50 of tested peptide, cysteines synthesized as alanine
[4] = HPV18 peptides, 200 μg/ml peptide, 16 hours, 174CEM.T2 cells
[5] = HPV18 peptides, 200 μg/ml peptide, 16 hours, 174CEM.T2 cells, background set on 0, binding positive when ≧0.5

## CC[C@H](C)[C@H](NC(=O)CNC(=O)[C@H](CC(C)C)NC(=O)[C@@H](N)[C@@H](C)O)C(=O)N[C@H](C(=O)N[C@@H](CS)C(=O)N1CCC[C@H]1C(=O)N[C@H](C(=O)N[C@@H](CS)C(=O)O)[C@@H](C)CC)C(C)C [HPV16 peptide 18]
HLA-A2.1; [1]
  MF (mean HLA-A2.1 fluorescence): 227.8
HLA-A2.1; [2]
  FI (Fluorescence Index): 2.5

## AMFQDPQER [residues 7-15 of HPV16 protein E6]
HLA-A11.2
  binding ratio to standard: 0.8400

## AVCDKCLKF [residues 68-76 of HPV16 protein E6]
HLA-A3.2; [3]
  binding ratio to standard: 0.0056
HLA-A11.2
  binding ratio to standard: 0.0037

## AVDLYHFLK [reference compound]
HLA-A11.2; read-out: 50% inhibition dose for the probe, unlabeled probe peptide
  pIC50: 8.05

## CCRSSRTRR [residues 146-154 of HPV16 protein E6]
HLA-A3.2; [3]
  binding ratio to standard: 0.0020

## DTLEKLTNT [HPV18 peptide 8, residues 88-96 of HPV18 protein E6]
HLA-A2.1; [4]
  MF (mean HLA-A2.1 fluorescence): 238.2
HLA-A2.1; [5]
  FI (Fluorescence Index): 0.7

## EITCVYCKT [HPV18 peptide 4, residues 29-37 of HPV18 protein E6]
HLA-A2.1; [4]
  MF (mean HLA-A2.1 fluorescence): 206.0
HLA-A2.1; [5]
  FI (Fluorescence Index): 0.5

## ELQTTIHDI [HPV16 peptide 4, residues 25-33 of HPV16 protein E6]
HLA-A2.1; [1]
  MF (mean HLA-A2.1 fluorescence): 108.0
HLA-A2.1; [2]
  FI (Fluorescence Index): 0.6

## ELTEVFEFA [HPV18 peptide 6]
HLA-A2.1
  FI (Fluorescence Index): 1.1
  MF (mean HLA-A2.1 fluorescence): 289.0

## FAFKDLFVV [HPV18 peptide 7, residues 47-55 of HPV18 protein E6]
HLA-A2.1; [4]
  MF (mean HLA-A2.1 fluorescence): 462.9
HLA-A2.1; [5]
  FI (Fluorescence Index): 2.3

## FQQLFLNTL [HPV18 peptide 11, residues 86-94 of HPV18 protein E7]
HLA-A2.1; [4]
  MF (mean HLA-A2.1 fluorescence): 244.5
HLA-A2.1; [5]
  FI (Fluorescence Index): 0.8

## GTLGIVCPI [HPV16 peptide 17, residues 85-93 of HPV16 protein E7]
HLA-A2.1; [1]
  MF (mean HLA-A2.1 fluorescence): 216.1
HLA-A2.1; [2]
  FI (Fluorescence Index): 2.3

## HLDKKQRFH [residues 125-133 of HPV16 protein E6]
HLA-A3.2; [3]
  binding ratio to standard: 0.4400

## IHDIILECV [HPV16 peptide 7, residues 30-38 of HPV16 protein E6]
HLA-A2.1; [1]
  MF (mean HLA-A2.1 fluorescence): 150.7
HLA-A2.1; [2]
  FI (Fluorescence Index): 1.3

## KCDSTLRLC [residues 60-68 of HPV16 protein E7]
HLA-A3.2; [3]
  binding ratio to standard: 0.0012

## KFYSKISEY [residues 75-83 of HPV16 protein E6]
HLA-A3.2
  binding ratio to standard: 0.0100

## KLPDLCTEL [HPV18 peptide 1, residues 13-21 of HPV18 protein E6]
HLA-A2.1; [4]
  MF (mean HLA-A2.1 fluorescence): 439.3
HLA-A2.1; [5]
  FI (Fluorescence Index): 2.1

## KTVLELTEV [HPV18 peptide 5, residues 36-44 of HPV18 protein E6]
HLA-A2.1; [4]
  MF (mean HLA-A2.1 fluorescence): 467.5
HLA-A2.1; [5]
  FI (Fluorescence Index): 2.3

## LCTELQTTI [HPV16 peptide 3, residues 22-30 of HPV16 protein E6]
HLA-A2.1; [1]
  MF (mean HLA-A2.1 fluorescence): 113.6
HLA-A2.1; [2]
  FI (Fluorescence Index): 0.7

## LFLNTLSFV [HPV18 peptide 13, residues 89-97 of HPV18 protein E7]
HLA-A2.1; [4]
  MF (mean HLA-A2.1 fluorescence): 360.3
HLA-A2.1; [5]
  FI (Fluorescence Index): 1.6

## LLMGTLGIV [HPV16 peptide 16]
HLA-A2.1
  FI (Fluorescence Index): 0.8
  MF (mean HLA-A2.1 fluorescence): 118.8

## LSFVCPWCA [HPV18 peptide 14, residues 94-102 of HPV18 protein E7]
HLA-A2.1; [4]
  MF (mean HLA-A2.1 fluorescence): 262.0
HLA-A2.1; [5]
  FI (Fluorescence Index): 0.9

## LTNTGLYNL [HPV18 peptide 9, residues 93-101 of HPV18 protein E6]
HLA-A2.1; [4]
  MF (mean HLA-A2.1 fluorescence): 352.5
HLA-A2.1; [5]
  FI (Fluorescence Index): 1.5

## PLCDLLIRC [HPV16 peptide 10, residues 102-110 of HPV16 protein E6]
HLA-A2.1; [1]
  MF (mean HLA-A2.1 fluorescence): 204.8
HLA-A2.1; [2]
  FI (Fluorescence Index): 2.1

## QLCTELQTT [HPV16 peptide 2, residues 21-29 of HPV16 protein E6]
HLA-A2.1; [1]
  MF (mean HLA-A2.1 fluorescence): 211.9
HLA-A2.1; [2]
  FI (Fluorescence Index): 2.2

## QLFLNTLSF [HPV18 peptide 12, residues 88-96 of HPV18 protein E7]
HLA-A2.1; [4]
  MF (mean HLA-A2.1 fluorescence): 258.2
HLA-A2.1; [5]
  FI (Fluorescence Index): 0.8

## QQYNKPLCD [residues 97-105 of HPV16 protein E6]
HLA-A3.2; [3]
  binding ratio to standard: 0.0045

## RHYCYSLYG [residues 84-92 of HPV16 protein E6]
HLA-A3.2; [3]
  binding ratio to standard: 0.0036

## RLCVQSTHV [HPV16 peptide 14, residues 66-74 of HPV16 protein E7]
HLA-A2.1; [1]
  MF (mean HLA-A2.1 fluorescence): 250.0
HLA-A2.1; [2]
  FI (Fluorescence Index): 2.8

## SLQDIEITC [HPV18 peptide 2, residues 24-32 of HPV18 protein E6]
HLA-A2.1; [4]
  MF (mean HLA-A2.1 fluorescence): 243.9
HLA-A2.1; [5]
  FI (Fluorescence Index): 0.7

## SLYGTTLEQ [residues 89-97 of HPV16 protein E6]
HLA-A3.2; [3]
  binding ratio to standard: 0.0080

## TGRCMSCCR [residues 140-148 of HPV16 protein E6]
HLA-A11.2
  binding ratio to standard: 0.0012

## TIHDIILEC [HPV16 peptide 6, residues 29-37 of HPV16 protein E6]
HLA-A2.1; [1]
  MF (mean HLA-A2.1 fluorescence): 184.5
HLA-A2.1; [2]
  FI (Fluorescence Index): 1.8

## TLEDLLMGT [HPV16 peptide 15, residues 78-86 of HPV16 protein E7]
HLA-A2.1; [1]
  MF (mean HLA-A2.1 fluorescence): 182.8
HLA-A2.1; [2]
  FI (Fluorescence Index): 1.8

## TLQDIVLHL [HPV18 peptide 10]
HLA-A2.1
  FI (Fluorescence Index): 2.7
  MF (mean HLA-A2.1 fluorescence): 519.6

## TTLEQQYNK [residues 93-101 of HPV16 protein E6]
HLA-A3.2; [3]
  binding ratio to standard: 0.0780

## VCPICSQKP [residues 90-98 of HPV16 protein E7]
HLA-A11.2
  binding ratio to standard: 0.0012

## YMLDLQPET [HPV16 peptide 12, residues 11-19 of HPV16 protein E7]
HLA-A2.1; [1]
  MF (mean HLA-A2.1 fluorescence): 283.9
HLA-A2.1; [2]
  FI (Fluorescence Index): 3.3
